The target in this assay is Recombinant human IL-1β (BioLegend 579404) (human, UniProt P01584 117-269). Nature of the assay: cell-based or functional assay.

*1 amine or outer side, *2 acyl side, *3 side chain or, on linkers, in order; H or OH if unused. [ ]: non-standard residue; d: D form. F4bcpA = 3-[4-[(S)-2-amino-2-carboxyethyl]phenyl]bicyclo[1.1.1]pentane-1-carboxylic acid, O=C([C@H](Cc1ccc(C23CC(C(=O)[*:3])(C2)C3)cc1)N[*:1])[*:2]; 3AzaPhe4AcPip = (S)-3-(6-(4-acetylpiperazin-1-yl)pyridin-3-yl)-2-aminopropanoic acid, CC(=O)N1CCN(c2ccc(C[C@H](N[*:1])C(=O)[*:2])cn2)CC1; dDabMe3 = [(R)-3-amino-3-carboxypropyl]-trimethylazanium, C[N+](C)(C)CC[C@@H](N[*:1])C(=O)[*:2]; F4pcCCA = (1R,4s)-4-(4-((S)-2-amino-2-carboxyethyl)phenyl)cyclohexane-1-carboxylic acid; Phe(4-(trans-4-COOH-cHex)) = N[C@@H](Cc1ccc([C@H]2CC[C@H](C(=O)O)CC2)cc1)C(=O)O; Pro(trans-4-NH2) = O=C([C@@H]1C[C@@H](N[*:3])CN1[*:1])[*:2]; Trp(βS-Me,4-F) = C[C@@H](c1c[nH]c2cccc(F)c12)[C@H](N)C(=O)O; Bip(4'-COOH) = N[C@@H](Cc1ccc(-c2ccc(C(=O)O)cc2)cc1)C(=O)O; 1Nal(3S-Me) = C[C@@H](c1cccc2ccccc12)[C@H](N)C(=O)O; Ala(indazol-1-yl) = N[C@@H](Cn1ncc2ccccc21)C(=O)O; Phe(4-COOH) = N[C@@H](Cc1ccc(C(=O)O)cc1)C(=O)O; Trp(6-F) = N[C@@H](Cc1c[nH]c2cc(F)ccc12)C(=O)O; Trp(7-Me) = Cc1cccc2c(C[C@H](N)C(=O)O)c[nH]c12; h3Pal(5-CN) = N#Cc1cncc(CC[C@H](N)C(=O)O)c1; αMeNle = CCCC[C@](C)(N[*:1])C(=O)[*:2]; hTyr = N[C@@H](CCc1ccc(O)cc1)C(=O)O; hCha = N[C@@H](CCC1CCCCC1)C(=O)O; 4Pal = N[C@@H](Cc1ccncc1)C(=O)O; Cha = N[C@@H](CC1CCCCC1)C(=O)O; dDab = NCC[C@@H](N)C(=O)O; Orn = NCCC[C@H](N)C(=O)O; dNMeA = CN[C@H](C)C(=O)O

B1: SEQ ID NO: 194 (Example No. 194) (peptide)
peptide: cyclo([Phe(4-(trans-4-COOH-cHex))][Trp(6-F)][Phe(4-COOH)]G[Pro(trans-4-NH2)][1Nal(3S-Me)]D[dNMeA]G[Bip(4'-COOH)][4Pal]S[dDabMe3][hCha])
SMILES: C[C@@H]1C(=O)NCC(=O)N[C@@H](Cc2ccc(-c3ccc(C(=O)O)cc3)cc2)C(=O)N[C@@H](Cc2ccncc2)C(=O)N[C@@H](CO)C(=O)N[C@H](CC[N+](C)(C)C)C(=O)N[C@@H](CCC2CCCCC2)C(=O)N[C@@H](Cc2ccc([C@H]3CC[C@H](C(=O)O)CC3)cc2)C(=O)N[C@@H](Cc2c[nH]c3cc(F)ccc23)C(=O)N[C@@H](Cc2ccc(C(=O)O)cc2)C(=O)NCC(=O)N2C[C@H](N)C[C@H]2C(=O)N[C@@H]([C@@H](C)c2cccc3ccccc23)C(=O)N[C@@H](CC(=O)O)C(=O)N1C
Turning to B1, the “MRC5 IC50” value was 0.015 nM.

B2: SEQ ID NO: 189 (Example No. 189) (peptide)
peptide: cyclo([F4bcpA]W[Phe(4-COOH)]G[Pro(trans-4-NH2)][1Nal(3S-Me)]D[dNMeA]G[Bip(4'-COOH)][Cha]G[dDab][hCha])
SMILES: C[C@@H]1C(=O)NCC(=O)N[C@@H](Cc2ccc(-c3ccc(C(=O)O)cc3)cc2)C(=O)N[C@@H](CC2CCCCC2)C(=O)NCC(=O)N[C@H](CCN)C(=O)N[C@@H](CCC2CCCCC2)C(=O)N[C@@H](Cc2ccc(C34CC(C(=O)O)(C3)C4)cc2)C(=O)N[C@@H](Cc2c[nH]c3ccccc23)C(=O)N[C@@H](Cc2ccc(C(=O)O)cc2)C(=O)NCC(=O)N2C[C@H](N)C[C@H]2C(=O)N[C@@H]([C@@H](C)c2cccc3ccccc23)C(=O)N[C@@H](CC(=O)O)C(=O)N1C
Consider B2, for which the “MRC5 IC50” value came out at 0.019 nM.

cyclo([Bip(4'-COOH)][Trp6Cl][Phe(4-COOH)]G[Pro(trans-4-NH2)][Trp(βS-Me,4-F)]D[dNMeA]G[Bip(4'-COOH)]KL[dA][hTyr]) [SEQ ID NO: 184 (Example No. 184)]: the “MRC5 IC50” value was determined as 0.018 nM.

For cyclo([F4pcCCA]W[Phe(4-COOH)]G[Pro(trans-4-NH2)][1Nal(3S-Me)]D[dNMeA]G[Bip(4'-COOH)][4Pal]G[dDab][hCha]) [SEQ ID NO: 191 (Example No. 191)], the “MRC5 IC50” value is 0.019 nM.

B3: SEQ ID NO: 187 (Example No. 187) (peptide)
peptide: cyclo([Bip(4'-COOH)]W[Phe(4-COOH)]G[Pro(trans-4-NH2)][Trp(βS-Me,4-F)]D[dNMeA]G[Bip(4'-COOH)]KL[dK](Ac)[hTyr])
SMILES: CC(=O)NCCCC[C@H]1NC(=O)[C@H](CC(C)C)NC(=O)[C@H](CCCCN)NC(=O)[C@H](Cc2ccc(-c3ccc(C(=O)O)cc3)cc2)NC(=O)CNC(=O)[C@@H](C)N(C)C(=O)[C@H](CC(=O)O)NC(=O)[C@H]([C@@H](C)c2c[nH]c3cccc(F)c23)NC(=O)[C@@H]2C[C@@H](N)CN2C(=O)CNC(=O)[C@H](Cc2ccc(C(=O)O)cc2)NC(=O)[C@H](Cc2c[nH]c3ccccc23)NC(=O)[C@H](Cc2ccc(-c3ccc(C(=O)O)cc3)cc2)NC(=O)[C@H](CCc2ccc(O)cc2)NC1=O
Take B3: the “MRC5 IC50” value came out at 0.009 nM.

cyclo([Bip(4'-COOH)][Trp7F][Phe(4-COOH)]G[Pro(trans-4-NH2)][Trp(βS-Me,4-F)]D[dNMeA]G[Bip(4'-COOH)]KL[dA][hTyr]) [SEQ ID NO: 185 (Example No. 185)]: the “MRC5 IC50” value came out at 0.024 nM.

B4: SEQ ID NO: 183 (Example No. 183) (peptide)
peptide: cyclo([3AzaPhe4AcPip]W[Phe(4-COOH)]G[Pro(trans-4-NH2)][1Nal(3S-Me)]D[dNMeA]G[Bip(4'-COOH)]QL[dA][h3Pal(5-CN)])
SMILES: CC(=O)N1CCN(c2ccc(C[C@@H]3NC(=O)[C@H](CCc4cncc(C#N)c4)NC(=O)[C@@H](C)NC(=O)[C@H](CC(C)C)NC(=O)[C@H](CCC(N)=O)NC(=O)[C@H](Cc4ccc(-c5ccc(C(=O)O)cc5)cc4)NC(=O)CNC(=O)[C@@H](C)N(C)C(=O)[C@H](CC(=O)O)NC(=O)[C@H]([C@@H](C)c4cccc5ccccc45)NC(=O)[C@@H]4C[C@@H](N)CN4C(=O)CNC(=O)[C@H](Cc4ccc(C(=O)O)cc4)NC(=O)[C@H](Cc4c[nH]c5ccccc45)NC3=O)cn2)CC1
B4: the “MRC5 IC50” value was 0.013 nM.

B5: SEQ ID NO: 186 (Example No. 186) (peptide)
peptide: cyclo([Bip(4'-COOH)][Trp(7-Me)][Phe(4-COOH)]G[Pro(trans-4-NH2)][Trp(βS-Me,4-F)]D[dNMeA]G[Bip(4'-COOH)]KL[dA][hTyr])
SMILES: Cc1cccc2c(C[C@@H]3NC(=O)[C@H](Cc4ccc(-c5ccc(C(=O)O)cc5)cc4)NC(=O)[C@H](CCc4ccc(O)cc4)NC(=O)[C@@H](C)NC(=O)[C@H](CC(C)C)NC(=O)[C@H](CCCCN)NC(=O)[C@H](Cc4ccc(-c5ccc(C(=O)O)cc5)cc4)NC(=O)CNC(=O)[C@@H](C)N(C)C(=O)[C@H](CC(=O)O)NC(=O)[C@H]([C@@H](C)c4c[nH]c5cccc(F)c45)NC(=O)[C@@H]4C[C@@H](N)CN4C(=O)CNC(=O)[C@H](Cc4ccc(C(=O)O)cc4)NC3=O)c[nH]c12
Regarding B5, the “MRC5 IC50” value was found to be 0.038 nM.

B6: SEQ ID NO: 193 (Example No. 193) (peptide)
peptide: cyclo([Phe(4-(trans-4-COOH-cHex))][Trp(6-F)][Phe(4-COOH)]G[Pro(trans-4-NH2)][1Nal(3S-Me)]D[dNMeA]G[Bip(4'-COOH)][4Pal]S[dDab][hCha])
SMILES: C[C@@H]1C(=O)NCC(=O)N[C@@H](Cc2ccc(-c3ccc(C(=O)O)cc3)cc2)C(=O)N[C@@H](Cc2ccncc2)C(=O)N[C@@H](CO)C(=O)N[C@H](CCN)C(=O)N[C@@H](CCC2CCCCC2)C(=O)N[C@@H](Cc2ccc([C@H]3CC[C@H](C(=O)O)CC3)cc2)C(=O)N[C@@H](Cc2c[nH]c3cc(F)ccc23)C(=O)N[C@@H](Cc2ccc(C(=O)O)cc2)C(=O)NCC(=O)N2C[C@H](N)C[C@H]2C(=O)N[C@@H]([C@@H](C)c2cccc3ccccc23)C(=O)N[C@@H](CC(=O)O)C(=O)N1C
Regarding B6, the “MRC5 IC50” value was 0.012 nM.

B7: SEQ ID NO: 182 (Example No. 182) (peptide)
peptide: cyclo([3AzaPhe4AcPip]W[Phe(4-COOH)]G[Pro(trans-4-NH2)][1Nal(3S-Me)]D[dNMeA]G[Bip(4'-COOH)][Orn]L[dA][hCha])
SMILES: CC(=O)N1CCN(c2ccc(C[C@@H]3NC(=O)[C@H](CCC4CCCCC4)NC(=O)[C@@H](C)NC(=O)[C@H](CC(C)C)NC(=O)[C@H](CCCN)NC(=O)[C@H](Cc4ccc(-c5ccc(C(=O)O)cc5)cc4)NC(=O)CNC(=O)[C@@H](C)N(C)C(=O)[C@H](CC(=O)O)NC(=O)[C@H]([C@@H](C)c4cccc5ccccc45)NC(=O)[C@@H]4C[C@@H](N)CN4C(=O)CNC(=O)[C@H](Cc4ccc(C(=O)O)cc4)NC(=O)[C@H](Cc4c[nH]c5ccccc45)NC3=O)cn2)CC1
Take B7: the “MRC5 IC50” value worked out at 0.013 nM.

B8: SEQ ID NO: 190 (Example No. 190) (peptide)
peptide: cyclo([F4bcpA]W[Phe(4-COOH)]G[Pro(trans-4-NH2)][1Nal(3S-Me)]D[dNMeA]G[Bip(4'-COOH)][Cha]G[dDab][hTyr])
SMILES: C[C@@H]1C(=O)NCC(=O)N[C@@H](Cc2ccc(-c3ccc(C(=O)O)cc3)cc2)C(=O)N[C@@H](CC2CCCCC2)C(=O)NCC(=O)N[C@H](CCN)C(=O)N[C@@H](CCc2ccc(O)cc2)C(=O)N[C@@H](Cc2ccc(C34CC(C(=O)O)(C3)C4)cc2)C(=O)N[C@@H](Cc2c[nH]c3ccccc23)C(=O)N[C@@H](Cc2ccc(C(=O)O)cc2)C(=O)NCC(=O)N2C[C@H](N)C[C@H]2C(=O)N[C@@H]([C@@H](C)c2cccc3ccccc23)C(=O)N[C@@H](CC(=O)O)C(=O)N1C
Consider B8, for which the “MRC5 IC50” value came to 0.018 nM.

B9: SEQ ID NO: 195 (Example No. 195) (peptide)
peptide: cyclo([Phe(4-(trans-4-COOH-cHex))]W[Phe(4-COOH)]G[Pro(trans-4-NH2)][1Nal(3S-Me)]D[dNMeA]G[Bip(4'-COOH)][4Pal]G[dDab][αMeNle])
SMILES: CCCC[C@]1(C)NC(=O)[C@@H](CCN)NC(=O)CNC(=O)[C@H](Cc2ccncc2)NC(=O)[C@H](Cc2ccc(-c3ccc(C(=O)O)cc3)cc2)NC(=O)CNC(=O)[C@@H](C)N(C)C(=O)[C@H](CC(=O)O)NC(=O)[C@H]([C@@H](C)c2cccc3ccccc23)NC(=O)[C@@H]2C[C@@H](N)CN2C(=O)CNC(=O)[C@H](Cc2ccc(C(=O)O)cc2)NC(=O)[C@H](Cc2c[nH]c3ccccc23)NC(=O)[C@H](Cc2ccc([C@H]3CC[C@H](C(=O)O)CC3)cc2)NC1=O
With B9, the “MRC5 IC50” value was determined as 0.022 nM.

B10: SEQ ID NO: 192 (Example No. 192) (peptide)
peptide: cyclo([Phe(4-(trans-4-COOH-cHex))][Trp(6-F)][Phe(4-COOH)]G[Pro(trans-4-NH2)][1Nal(3S-Me)]D[dNMeA]G[Bip(4'-COOH)][4Pal]G[dDab][hCha])
SMILES: C[C@@H]1C(=O)NCC(=O)N[C@@H](Cc2ccc(-c3ccc(C(=O)O)cc3)cc2)C(=O)N[C@@H](Cc2ccncc2)C(=O)NCC(=O)N[C@H](CCN)C(=O)N[C@@H](CCC2CCCCC2)C(=O)N[C@@H](Cc2ccc([C@H]3CC[C@H](C(=O)O)CC3)cc2)C(=O)N[C@@H](Cc2c[nH]c3cc(F)ccc23)C(=O)N[C@@H](Cc2ccc(C(=O)O)cc2)C(=O)NCC(=O)N2C[C@H](N)C[C@H]2C(=O)N[C@@H]([C@@H](C)c2cccc3ccccc23)C(=O)N[C@@H](CC(=O)O)C(=O)N1C
B10: the “MRC5 IC50” value came to 0.015 nM.

B11: SEQ ID NO: 188 (Example No. 188) (peptide)
peptide: cyclo([F4bcpA]W[Phe(4-COOH)]G[Pro(trans-4-NH2)][1Nal(3S-Me)]D[dNMeA]G[Bip(4'-COOH)][Ala(indazol-1-yl)]G[dDab][hCha])
SMILES: C[C@@H]1C(=O)NCC(=O)N[C@@H](Cc2ccc(-c3ccc(C(=O)O)cc3)cc2)C(=O)N[C@@H](Cn2ncc3ccccc32)C(=O)NCC(=O)N[C@H](CCN)C(=O)N[C@@H](CCC2CCCCC2)C(=O)N[C@@H](Cc2ccc(C34CC(C(=O)O)(C3)C4)cc2)C(=O)N[C@@H](Cc2c[nH]c3ccccc23)C(=O)N[C@@H](Cc2ccc(C(=O)O)cc2)C(=O)NCC(=O)N2C[C@H](N)C[C@H]2C(=O)N[C@@H]([C@@H](C)c2cccc3ccccc23)C(=O)N[C@@H](CC(=O)O)C(=O)N1C
For B11, the “MRC5 IC50” value was found to be 0.016 nM.

For the origin of these results see US20230406885A1, “CYCLIC PEPTIDES FOR TRAPPING INTERLEUKIN-1 BETA” (MERCK SHARP & DOHME LLC, priority 2022, published 2023).
